# Measured values: paper PMC8473560, “Molecular basis of C-S bond cleavage in the glycyl radical enzyme isethionate sulfite-lyase” (Cell Chemical Biology, 2021)
# B1: isethionate sulfite-lyase (IslA) from Bilophila wadsworthia 3.1.6 (enzyme)
# chain: MTQVAEIKSPHEQRLEDNIAGKEDIYRESHKRVFKLLERFDGQKPAIDVERALYFTQSMAETVGQPLVLRWAKALMNVAKNITVMVQDDQLLLGRCGGHDGRYGILYPELDGDFLDIAVRDLPTRPQSPASISPEDAKIVVEQIAPFWKGRTYHEALNKALPAEVHKLTYDDPDGLISRFIVNETSSFRSSIQWVHDYEVVLKRGFNGLKQEMEEKLAALDPASPVDQVDKRPFIEATILVCDAIVLWAKRHADAARKAAEACADPVRKAELIRMAENAEHVPANPARDFYEAVQSQYFTQMFSRLEQKTGTTISNGRMDQYFYPFYKKDMEAGILTDEKTLEYLECMWVGMAEFIDMYISPAGGAFNEGYAHWEAVTIGGQTPDGRDATNDLTYLFLKSKREFPLHYPDLAARIHSRAPERYLWDVAETIKFGSGFPKLCNDEECIPLYVSKGATFEEALDYAVSGCIEIRMPNRDTYTSGGAYTNFASAVEMALYDGKMKKYGDVQLGIQTGDARKFKSWDEFWNAYVQQHMLLLRTTFIQQYIVIQTRAKHFAQPMGSVLHALCRKHCIDLHQPQIPEGLNFGYFEFMGLGTVIDSLAAIKKLVFEDKKLTMDQLIDALEANFEGYEDIQQLLRTAPCYGNDDEYADEIGRELDRMAVSFAAKYGKEMGINNDARYVPFTSHVPFGKVVSATPNGRVAWFPLADGSSPSHGADHNGPTAILLSNHNTKNYGMRARAARLINVKFTPKCVEGDAGTEKLVQFIRTWCDLKLWHIQFNVINADTLKKAQKDPQKYRNLIVRIAGYSAYFVDLTPDLQNDLIARTGHDQM
# notes: Isethionate sulfite-lyase IslA, Bilophila wadsworthia 3.1.6, wild type; expressed from pET-28a-IslA (Peck et al., 2019); It calls the structure native/wild-type and gives '6-830 (of 830 residues)', so the whole protein is likely, but the words 'full length' are not used; also called IsIA; wild-type IslA; source: E. coli BL21(DE3), purified (Ni-NTA, dialysis); not shown: His-tag, N-terminal, kept
# Experiments:
# O=S(=O)(O)CCO [1] = test: purified protein; assay type: biochemical, Bilophila wadsworthia; settings: IslA activated by IslB and S-adenosylmethionine, anoxic, 30 °C, isethionate 1-50 mM, kcat not normalized to glycyl radical content
# [2] = biological target: T1, IslA (isethionate sulfite-lyase) (Bilophila wadsworthia, UniProt E5Y378); test: X-ray crystal structure, […] Å; assay type: binding; settings: unactivated enzyme, aerobic, 30 mM sodium isethionate, pH 7.5, 22 °C; active site
# T1 construct: full length, 830 residues, N-terminal His-tag kept (pET-28a), expressed in E. coli BL21(DE3); homodimer
# O=S(=O)(O)CCO [3] = test: purified protein; settings: IslA activated by IslB and S-adenosylmethionine, anoxic, 30 °C, isethionate 1-50 mM, kcat not normalized to glycyl radical content
# [4] = biological target: the molecule itself; test: crystal structure; hanging drop vapor diffusion at 22°C, aerobic; unactivated IslA with intact N-terminal His-tag, 7.5 mg/mL in 50 mM HEPES pH 7.5, 50 mM NaCl; glycerol-bound (2.26 Å, P21212) and isethionate-bound (2.70 Å, P212121) crystal forms
Molecule,Km (O=S(=O)(O)CCO [1]),kcat (O=S(=O)(O)CCO [1]),other results
IslA (isethionate sulfite-lyase) (Bilophila wadsworthia 3_1_6; W374F),11 ± 1 mM,0.063 ± 0.003 s⁻¹,–
"O=S(=O)(O)CCO [isethionate, 2-hydroxyethanesulfonate]",–,–,"X-ray crystal structure, 2.70 Å [2]: a second IslA structure with the substrate Ise bound was obtained"
IslA (isethionate sulfite-lyase) (Bilophila wadsworthia 3_1_6; F682Y),8 ± 1 mM,0.0074 ± 0.0003 s⁻¹,–
IslA (isethionate sulfite-lyase) (Bilophila wadsworthia 3_1_6; F682A),6.8 ± 0.6 mM,0.0171 ± 0.0004 s⁻¹,–
IslA (isethionate sulfite-lyase) (Bilophila wadsworthia 3_1_6),–,–,Km (O=S(=O)(O)CCO [3]): 8 ± 2 mM
IslA (isethionate sulfite-lyase) (Bilophila wadsworthia 3_1_6; W374Y),16.0 ± 0.9 mM,0.14 ± 0.003 s⁻¹,–
IslA (isethionate sulfite-lyase) (Bilophila wadsworthia 3_1_6; I192A),12 ± 2 mM,0.4 ± 0.02 s⁻¹,–
B1,–,–,stoichiometry N [4]: 2
